{"source": "paper PMC5500548", "about": "“Facile Control over the Supramolecular Ordering of Self-assembled Peptide Scaffolds by Simultaneous Assembly with a Polysacharride” (Scientific Reports, 2017)", "target": "the molecule itself", "experiment": "transmission electron microscopy + atomic force microscopy; hydrogel of 10 mg/mL Fmoc-FRGDF formed by pH switch to pH 7.4, PBS; dried, negatively stained (TEM) or on HOPG (AFM)", "note": "No end group written: not given here. *: point of attachment. Fmoc = O=C(OCC1c2ccccc2-c2ccccc21)*", "data": [{"protein": "Fmoc-FRGDF (the Fmoc group is kept on the N-terminus; Low molecular weight gelator; also called Fluorenylmethoxycarbonyl (Fmoc) pentapeptide; SAP; source: synthetic peptide (solid phase Fmoc peptide synthesis))", "note": "[Fmoc-FRGDF]", "values": [{"measurement": "binding result", "result": "binds"}]}]}
